Target: recombinant human tau
Test: SPR

B1: 7G6 (antibody, V domains shown)
VH: EVQLQQSGAELVRPGALVKLSCKASGFNIKDYYIHWVKQRPEQGLEWIGWIDPENGETVYDPKFQGKASITSDTSSNTAYLQLRSLTSEDTAVYYSTSLDFWGQGTSVTVSS
VL: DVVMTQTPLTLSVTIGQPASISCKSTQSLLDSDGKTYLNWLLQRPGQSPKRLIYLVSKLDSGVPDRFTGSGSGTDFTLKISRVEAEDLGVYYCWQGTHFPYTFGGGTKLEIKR
- Kd: 5.77 nM

— patent US20220089702A1 (published 2022)
